Key:
[1] = target: FLAG-tag marker (Alpha Diagnostic Cat # FLAG15-R); experiment: ELISA, 25% human serum in KRB, pH 6.0
[2] = target: FLAG-tag marker (Alpha Diagnostic Cat # FLAG15-R); experiment: ELISA, 25% human serum in KRB, pH 7.4
[3] = target: Myc-tag marker (Alpha Diagnostic Cat # Myc15-R); experiment: ELISA, 25% human serum in KRB, pH 6.0
[4] = target: Multifusion-tagged marker (Alpha Diagnostic Cat # MFPM20-C); experiment: ELISA, 25% human serum in KRB, pH 7.4
[5] = target: Myc-tag marker (Alpha Diagnostic Cat # Myc15-R); experiment: ELISA, 25% human serum in KRB, pH 7.4

Kd [1] [µg/mL]	Kd [2] [µg/mL]	Kd [3] [µg/mL]	Kd [4] [µg/mL]	Kd [5] [µg/mL]	Substance
0.135	0.224	–	–	–	anti-FLAG antibody (Abcam, ab1238)
–	–	0.00773	0.02	0.00798	anti-myc antibody (Abcam, #ab1326)

— US20120108455A1
